The target of the assay is Mce1-(227–567) protein, RNA guanylyltransferase (GTase) domain of mouse mammalian capping enzyme (mouse) (UniProt O55236). Description: fluorescence polarisation. In general terms: Polarisation of emitted light reports the rotation of a fluorescent probe.

For orientation: Ki means a dissociation constant, usually derived from enzyme kinetics or from competition with a known ligand. Low readings indicate higher affinity, high ones lower affinity.

Sequence of Mce1-(227–567) protein, RNA guanylyltransferase (GTase) domain of mouse mammalian capping enzyme (mouse) (O55236 227-567): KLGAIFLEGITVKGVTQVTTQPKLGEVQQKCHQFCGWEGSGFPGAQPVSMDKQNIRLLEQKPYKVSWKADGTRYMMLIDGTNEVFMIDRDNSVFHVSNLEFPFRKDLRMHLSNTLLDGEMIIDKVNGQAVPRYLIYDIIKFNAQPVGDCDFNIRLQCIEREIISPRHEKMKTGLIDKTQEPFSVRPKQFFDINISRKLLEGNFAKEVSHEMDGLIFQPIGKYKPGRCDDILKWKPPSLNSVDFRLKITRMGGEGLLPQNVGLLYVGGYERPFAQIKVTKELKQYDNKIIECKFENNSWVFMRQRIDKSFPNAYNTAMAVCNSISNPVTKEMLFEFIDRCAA

“unlabeled 11 aa phosphorylated CTD peptide (S2P3T4S5PP6S7Y1S2PP3T4S5)” registered a Ki of 160 µM.

The values above are taken from paper PMC3142331.
